According to publication PMC3919806:

Biological target: Lrp4-myc (mouse full length Lrp4) (mouse) (UniProt Q8VI56)
Sequence of UniProt Q8VI56 (Q8VI56 21-1905): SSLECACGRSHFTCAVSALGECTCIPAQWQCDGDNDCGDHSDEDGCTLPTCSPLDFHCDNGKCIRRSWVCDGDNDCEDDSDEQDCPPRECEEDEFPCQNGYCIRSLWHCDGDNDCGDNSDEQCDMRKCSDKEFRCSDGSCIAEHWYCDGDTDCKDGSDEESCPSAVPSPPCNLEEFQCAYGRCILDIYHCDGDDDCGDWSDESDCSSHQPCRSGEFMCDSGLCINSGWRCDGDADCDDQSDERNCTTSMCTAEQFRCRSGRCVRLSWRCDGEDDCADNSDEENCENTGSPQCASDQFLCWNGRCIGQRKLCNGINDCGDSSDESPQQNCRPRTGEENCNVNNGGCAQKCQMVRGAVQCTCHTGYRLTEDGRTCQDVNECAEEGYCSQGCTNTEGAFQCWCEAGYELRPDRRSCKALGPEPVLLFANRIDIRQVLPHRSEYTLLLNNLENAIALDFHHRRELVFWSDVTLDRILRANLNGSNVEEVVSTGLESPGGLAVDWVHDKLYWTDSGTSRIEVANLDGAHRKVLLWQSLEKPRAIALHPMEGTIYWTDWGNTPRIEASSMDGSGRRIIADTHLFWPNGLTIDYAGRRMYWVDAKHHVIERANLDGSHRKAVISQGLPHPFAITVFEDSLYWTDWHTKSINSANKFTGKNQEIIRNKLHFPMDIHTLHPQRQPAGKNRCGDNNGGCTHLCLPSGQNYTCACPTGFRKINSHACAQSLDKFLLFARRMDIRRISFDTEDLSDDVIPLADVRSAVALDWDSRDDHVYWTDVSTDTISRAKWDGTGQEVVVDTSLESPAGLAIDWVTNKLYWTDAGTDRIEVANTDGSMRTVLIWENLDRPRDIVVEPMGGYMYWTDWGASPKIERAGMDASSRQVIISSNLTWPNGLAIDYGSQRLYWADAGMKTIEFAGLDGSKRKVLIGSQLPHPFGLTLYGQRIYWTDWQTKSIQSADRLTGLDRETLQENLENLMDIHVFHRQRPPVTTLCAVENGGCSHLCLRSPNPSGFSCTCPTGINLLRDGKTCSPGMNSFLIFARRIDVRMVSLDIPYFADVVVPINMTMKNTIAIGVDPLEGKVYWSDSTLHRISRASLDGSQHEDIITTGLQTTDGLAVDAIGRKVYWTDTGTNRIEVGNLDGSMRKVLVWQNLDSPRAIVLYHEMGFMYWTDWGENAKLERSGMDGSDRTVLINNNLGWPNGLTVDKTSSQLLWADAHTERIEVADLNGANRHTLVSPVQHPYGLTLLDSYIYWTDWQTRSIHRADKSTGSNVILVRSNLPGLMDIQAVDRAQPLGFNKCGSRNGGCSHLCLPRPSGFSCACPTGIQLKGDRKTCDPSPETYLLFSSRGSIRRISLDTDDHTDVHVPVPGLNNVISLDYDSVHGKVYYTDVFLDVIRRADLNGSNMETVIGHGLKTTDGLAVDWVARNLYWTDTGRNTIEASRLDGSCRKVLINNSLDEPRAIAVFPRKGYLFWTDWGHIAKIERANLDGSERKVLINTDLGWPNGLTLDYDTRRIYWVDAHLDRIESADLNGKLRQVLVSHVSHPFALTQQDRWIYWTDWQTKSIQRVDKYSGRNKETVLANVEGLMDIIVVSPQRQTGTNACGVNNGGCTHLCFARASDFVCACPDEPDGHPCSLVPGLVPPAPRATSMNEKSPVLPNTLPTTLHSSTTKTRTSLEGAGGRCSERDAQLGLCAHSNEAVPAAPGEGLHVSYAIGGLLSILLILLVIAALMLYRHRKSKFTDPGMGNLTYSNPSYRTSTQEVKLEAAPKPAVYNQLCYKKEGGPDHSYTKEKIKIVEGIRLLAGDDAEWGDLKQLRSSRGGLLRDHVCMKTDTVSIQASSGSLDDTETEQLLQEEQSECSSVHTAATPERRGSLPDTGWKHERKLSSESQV

AChR clustering on differentiated C2C12 myotubes, 16 h (area of AChR clusters normalized to myotube area), EC50: 0.44 nM
Substance: NT-1654, C-terminal 44 kDa fragment of murine agrin (from UniProt A2ASQ1 1519-1950) (domain or fragment)
